Data: the RNAGym collection of RNA variant scans (doi:10.1073/pnas.2313332121)

B1: TPR t1 (parent)
chain: GACCAAUCUGCCCUCAGAGCUCGAGAACAUCUUCGGAUGCAGAGGAGGCAGGCUUCGGUGGCGCGAUAGCGCCAACGUCCUCAACCUCCAAUGCAUCCCACCACAUGAUGAUGCCUGAAGAGCCUUGGUUUUUUG

Variants of: B1
Experiment: polymerase ribozyme fitness, log enrichment relative to wild type (log ratio); higher = more active; in vitro selection for triplet polymerase activity
Outline: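 In triplicate, a single round of in vitro selection was run on each mutant library, PCR-built and transcribed, covering one subunit of a heterodimeric triplet polymerase ribozyme. Frozen incubation at −7 °C followed annealing with a biotinylated primer, partner subunit and triplets, and extended constructs were then gel-excised, streptavidin-captured and taken through RT-PCR. Fitness is the logarithm of genotype enrichment over wild-type enrichment, from inverse-variance-weighted replicate averages of Illumina-sequenced inputs and outputs. […] only genotypes with ≥10 input reads and ≥1 read per output were kept.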

Variant	polymerase ribozyme fitness (log ratio)
G69C U106A C124A G128A	-1.94
G69U C89U	-0.148
G71A C85G U126C	-2.15
C70U U131G U133A	-0.369
C70A G93A U116C C123A	-5.19
G71A U92A C94U C115G	-4.8
G71A G120C	0.139
G65U A66C	-4.3
G71A C79G	-3.16
A68U	-7.01
A68G	-2.44
A68C	-6.94
G69A U96C	-3.08
G69A C73A	-2.75
C70U G93C C115U	-3.35
G65A	-3.57
G65U	-4.27
G65C	-5.62
G69C U130A	-1.59
G69U U78C C102U	0.0221
G71A C94U	-1.55
C70A C88A	-1.82
C70A C86A U87G	-2.94
A66G U106G	-3.66

Variant	polymerase ribozyme fitness (log ratio)
G69A G120U	-2.36
G69U C123U	1.98
G69U C72U C114A G128A	-3.08
C70U U130A	-1.04
G69A U131A	-2.38
G69A U131G	-3.12
C70G U125G	-4.85
C70G U125A	-2.85
C70G C86A	-4.89
G69A U81A	-3.16
C70U A103G	-4.3
G69U U125A	-0.179
C70G U131A	-2
G65A C114G	-7.73
G71C A84G U133A	-3.86
C70A A83G C85U G113U G117U	-6.04
G71A U81G A83U C124A	-7.19
A66U G77C C82U G128C	-4.12
G69A C115G	-3.93
C70U G71U	-0.437
U67C C88A G117C	-5.9
G69A G135U	-3.93
A66U U106C	-1.81
A66G C72U C80U C123A	-3.12

Variant	polymerase ribozyme fitness (log ratio)
G69U C76G C85G G120U	-2.87
G69C A100U	-1.67
G71A U116C G117U	-2.83
C70A U132A	-0.853
G69U C114G	-0.996
G69C C82A C97G U132A	-5.29
C70U G110C	-4.32
G69C C70G C82A	-4.81
C64U U78C	-0.191
A66C C85A C86A	-2.7
A66U G71C	-3.02
A66U U78C C123U	-0.156
C70A G127C	-2.17
G69C G120C	-0.251
C70A U81A G93A	-3.44
C70A G128A	-3.64
G71A G77C C101G	-2.79
C70G U132G U133A	-2.52
G69C U78A	-2.44
C70G C99A G113A	-6.35
C70G C79A	-4.41
G69U C94A C101G G120U	-1.15
C70U A95U A111U G120U	-6.23
C70A C73U A111C	-2.13

Variant	polymerase ribozyme fitness (log ratio)
G69C C94U	-1.35
A68G C79G A105G G110U	-8.49
C70U C98U U129G	-2.67
G69C A91G	-1.94
G69A A121U	-0.353
G69U G135U	-0.532
C70U C99U	-3.35
G69U U130G	0.642
A66U C76U U106C A119G U126C U130A	-2.47
G69C C104A C123G	-1.33
C70U U78A A95U U112G U133A	-0.788
C70U C82A C123U G128A	-1.76
C70A G117C	-3.77
G69A A91U	-6.02
G71A A84U U112A U131A	-0.0045
G69C C124U	0.177
G69U C70G U92C G122A U125A	-3.32
A66G U87A C99U A118U	-4.99
G69C G117A	-2.37
C70U U81A C82G	-2.96
C70U G93C	-1.12
C70A U87C C102A	-3.97
C70A U106G	-4.07
C70U A75U G77U A83U U106A C114U C123G U133G	-6.34

Variant	polymerase ribozyme fitness (log ratio)
C64U U130A	-0.073
G65A C79U	-3.57
G69U C99U	-1.7
G71A U96G C123A	-0.833
C64U U112G C124G G135A	1.56
C70U C79U C124U	1
G71A C82G G117U	-3.41
U67G C82A	-6.14
C70U C101U G117C	-5.37
G71A C89U	-0.978
G71A C114U	-2.27
G69A A84U A91G	-6.33
A66C G113C G120U	-5.98
G71A G117C	-3.15
C70U C72A A103U A108G G110A	-6.1
G69U A84U C124U	1.84
G69U C72G C102U U125G	-1.81
G71A G127C	-1.54
G69C U78G C102U G110A	-6.81
A68G C114U	-5.48
G71A G120C G127A U131G	1.2
G71A U81C C115U	-3.59
C70G C85U A90U C104A C115A	-6.79
U67C C123G	-4.34

Variant	polymerase ribozyme fitness (log ratio)
C70U G71A U130C	-1.13
G71A G122A	-1.18
C70U A74C C101U	-0.934
C70A C102U U112C	-2.21
C70U C82A C85U	-1.4
G69A A84U	-3.06
A66C G117A A119U	-2.36
C70G C97U U116A G117A	-5.25
C70G A84U	-3.25
G71A U92C	-2.39
G71A U92G	-3.98
C70U U78A G120U G128A	-2.18
G69U A103C U131C	-1.05
G65U C124A	-4.07
C70G U106C	-2.51
U67C G120U	-4.12
G71A G135U	-1.5
G69U U133G	0.15
C70A G122U	-1.64
C70U G77U U78C A95U C123G	0.382
G71A A91G A121U	-0.169
C70U C76A A121U U125G	-0.883
C70U C114U	-2.88
G69A C89G C97A A105C G110U	-6.73

Variant	polymerase ribozyme fitness (log ratio)
G69U C94U U112C	1.42
C70A U129A	-3.27
C70A U129C	-2.68
G69A C104U G120A U133A	-0.971
G69C C101A	-2.4
G65A G117A	-4.47
C70A C89G	-3.96
C70U C82G A118G	-1.41
G69U C70G U109A A111C	-5.41
G69U G117C	-2.27
C70U C102G A121G	-5.14
C70A C82A	-1.54
A68U A90G C101G G113A G117C	-5.75
G69C U126A	-3.12
C64U U116A G120U	-1.79
A68G U112C	-0.794
G71A U112C	0.03
G71A U112G	-1.07
G69C G122U C124U	-0.632
G69U G120U	1.02
C70G A105U G113A	-6.59
C70A U112A	-0.662
C70A U112C	0.318
